Results on 1 molecule are retold here after patent US20090311265A1.

Test [1] concerns the target recombinant HA, subtype H7 (A/Netherlands/219/03 (H7N7)) (influenza A virus A/Netherlands/219/03 (H7N7)). Briefly: ELISA, coated HA, IgG 5 µg/ml.
Test [2] has as its target recombinant HA, subtype H9 (A/Hong Kong/1073/99 (H9N2)) (influenza A virus A/Hong Kong/1073/99 (H9N2)). Briefly: ELISA, coated HA, IgG 5 µg/ml. (ELISA stands for enzyme-linked immunosorbent assay.)

B1: CR6329 (antibody, V domains shown)
VH: EVQLVQSGAEVKKPGSSVKVSCKASGGIFRSNSISWVRQAPGQGLEWMGGIFALFGTTDYAQKFQGRVTITADESSTTVYLELSSLTSEDTAVYYCARGSGYTTRNYFDYWGQGTLVTVSS
VL: EIVLTQSPGTLSLSPGERATLSCRASQSVSSNYLGWYQQKPGQAPRLLIYGASSRASGIPDRFSGGGSGTDFTLTISRLEPEDFAVYYCQQYGSSPLTFGGGTKVEIKR
As for B1, the figures for the OD 492 nm in test [1] and in test [2] were 0.17 OD 492 nm and 2.16 OD 492 nm, respectively.
